Data from the nanobody polyreactivity screen of Harvey et al. (2022).

Assay: yeast display, Sf9 membrane polyspecificity reagent, FACS + sequencing; frameworks hold sequencing errors
Summary of the method: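 Polyreactivity labels are assigned by the sorting gate from which each nanobody was recovered. The gates were low and high (top ~1%), set on anti-HA fluorescence for expression and streptavidin fluorescence for reagent binding. Before sorting, galactose-induced (36–48 hours) yeast display cells were stained for 1 hour at 4 °C with 10% biotinylated, detergent-solubilized Sf9 membrane reagent.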

Sequence	polyreactivity (PSR sort gate)
QVQLVESGGGLVQAGGSLRLSWAASGNTFYGYAMGWYRQAPGKERELVAGIRWSGGSTSYADSVKGRFTISRDNAKNTVYLQMNSLKTEDTAVYYCAAGWYPWGYYSGYISYEYWGQGTQVTVSS	high polyreactivity
QVQLVESGGGLVQAGGSLRLSCAASGNIFSRYAMGWYRQAPGKERELVASISRGGRTNYADSVKGRFTISRDNAKNTVYLQMNSLKPEDTAVYYCAKGGKGYWHPTGPYPFNYWGQGTQVTVSS	high polyreactivity
QVQLVESGGGLVQAGGSLRLSCAASGSIFRVNAMGWYRQAPGKERELVAAISRRGGRRYYADSVKGRFTISRDNAKNTVYLQMNSLKPEDTAVYYCAAGVSVSASPYNGFDYWGQGTQVTVSS	high polyreactivity
QVQLVESGGGLVQAGGSLRLSCAASGTFYGNTMGWYRQAPGKERELVAVISIDVSTNYADSVKGRFTISRDNAKNTVYLQMNSLKPEDTAVYYCAADYLRQFRDYDYWGQGTQVTVSS	low polyreactivity
QVQIVESGGGLVQAGGSLRLSCAASGLTFIRYAMGWYRQAPGKERELVAAISTSGGRTYYADSVKGRFTISRDNAKNTVYLQMNSLKPEDTAVYYCAKYQSTGYTQSSYDYRGQGTQVTVSS	high polyreactivity
QVQLVESGGGLVQPGGSLRLSCAASGRISYVYTMGWYRQAPGKERELVAAISKSGGSTSYADSVKGRFTISRDNAKNTVYLQMNSLKPEDTAVYYCAAGRYYYTYAYDHWGQGTQVTLSS	high polyreactivity
QDQLVESGGGLVQAGGSLRLSCASSGSTFPWYTMGWSRQAPGKERELVAAIDGSAGDTYYADSVKGRVTISRDNAKNTVYLQMNSLKPEDTAVYYCATRTWRWGYLHYDYWGQGTQVTVSS	low polyreactivity
QVQLVESGGGLVQAGGSHRLSCAASGSTFVPYTMGWYRQAPGKERELVAAISGSGGTDYADSVKGRFTISRDNAKNTVYLQMNSLKPEDTAVYYCATDGLDFWFIYDYWGQGTQVTVST	low polyreactivity
QVQLVESGGGLVQAGGSLRLSCAASGSTFSYNARGWYRQAPGKERELVAAITSGSSTNYADSVKGRFTISRDNAKNTVYLQMNSLKPEDTAVYYCAADGYQDKYYWLETWVGYWGQGTQVTVSS	low polyreactivity
QVQLVESGGGLVQAGGSLRLSCAASGRTSRYAMGWYRQAPGKERELVAAISRNGGTTSYADSVKGRFTISRDNAKNTVYLQMNSLKPEDTAVYYCNAYSAFVPPTRGYYWGQGTQVTVSS	high polyreactivity
QVQLVESGGGLVQAGGSLRLSCAASGRTFEHYSMGWYRQAPGKEREFVAVIDSSDGSTYYADSVKGRFTISRDNAKNTVYLQMNSLKPEDTAVYYCLGGYYYLQYDYWGQGTQVTVSS	low polyreactivity
QVQIVESGGGLVQAGGSLRISCAASGSIFVQYAMGLYRQAPGKERELVAAITTGGGTNYADSVKGRFKISRDNAKNTVYLQMNSLKPEDTAVYSCAADSRWLVRLYDYWGHGTQVTVSS	low polyreactivity
QVQLVESGGGLVQAGGSLRLSCAASGSTFNGNVMGWYRQAPGKERELVAGISKSGGTTYYADSVKGRFTISRDNAKNTVYLQMNSLKPEDTAVYYCAARGRVRYYPQYDYWGQGTQVTVSS	high polyreactivity
QVQLVESGGGLVQAGGSLRLSCAASGRTLPYNAMAWYRQAPGKESELVAAITWSGGRTYYADSVKGRFTISRDNAKNTVYLQMNSLKPEDTAVYYCAAGKSSYGKPKYYYWGQGTQVTVSS	high polyreactivity
QVQVVESGGGLVQAGGSLRLSCAASGRTFFFYAMGWYRQAPGKERELVAGITSRGTRTYYADSVKGRFTISRDNAKNTVYLQMNSLKPEDTAVYYCATDDSRDWLNYWGQGTQVTVSS	low polyreactivity
QVQLVESGGGLVQAGGSLRLSCAASGSIFIYYAMGWTRQAPGKERELVATISSDDRTNYTDSVKGRFTISRDNAKNTVYLQMNSLKPEDTAVYYCAADRYWGGRDGPEYDYWGQGTQVTVSS	low polyreactivity
QVQLEESGGGLVQAGGSLRLSCAASGRTIIINTMGWYRQAPGKERELVAAISKNGATTNYADSLKGRFTISRDNAKNTVYLQMNSLKPEDTSVYYCNARYSGYLRLDYWGQGTQVNVSS	low polyreactivity
QVQLVESGGGLVQAGGSLRLSCAASGFIFSVNAMGWYRQAPGKERELVADISCRGTSTNYADSVKGRFTISRDNAKNTVYLQMNSLKPEDTAVYYCAADGQLHMDYWGQGTQVTVSS	high polyreactivity
QVQLVDSGGGLVQAGGSLRLSCAASGFIFSSYAMVWYRQAPGKERELVAAISRSGGYTYYADSVKGRFTISRDNAKNTVYFQMNSLNAEDTAVYYCATRSYMPGVRRGYDYWGKGTQVTVSS	high polyreactivity
QVQLVESGGGLVQAGGSLRLSCAASGSIFHYYAMGWYRQAPGKERELVAAINSSGGSRTYYADSVKGRFTISRDNAKNTVYLQMNSLKPEDTAVYYCAAARDVFLGLQIWYWYGGDYWGQGTQVTVSS	low polyreactivity
QVQLVESGGGLVQAGGRLRLSCAASGGIFSTYTRGWYRQEPGKERELVAAITTGNSTYYADSVKGRFTISRDNAKNTVYLQMNSLKPEDTAVYYCAADTIGYHYWYDYWGQGTQVTVSS	low polyreactivity
QVQLVESGGGIVQAGGSLRLSCAASGRIFVLYAMGSYRQAPGKERELVADITVSGGRTYYADSVKGRFTISRDNAKYTVYLQMNSLKPEDTAVYYCAASPRSYYWRYYQEDYWGQGTQVTVSS	high polyreactivity

Sequence	polyreactivity (PSR sort gate)
QVQLHESGGGLVQAGGSLRLSCAASGTISVTYNMGWYRQAPGKEREFVAGNSTGATTNYADSVKGRFTISRDNAKKTVYLQMNSLKPEDTAVYYCAAHIYRQDHFYYWGQGTQVTVSS	low polyreactivity
QVQLVESGGGLVQAGGSLRLSCAASGRTFAYNTMGWYRQAPGKERELVAAITSGGNTYYADSVKGRFTISRDNAKNTVYLQMNSLKPEDTAVYYCARYFTARLEGGYWGQGTQVTVSS	high polyreactivity
QVQLVESGGGLVQAGGSLRLSCAASGYIFVRYAMGWYRQAPGKERELVAAINSSGGRTYYADSVKGRFTISRDNAKNTVYLQLNSLKPEDTAVYYCAAYGYYRSGYRALEGYWGQGTQVTVAS	high polyreactivity
QVQLVESGGGLVQAGGSLRLSCPASGRTFPGYSKGWYRQAPGKERELVATITGNGGSTYYADSVKGRFTISRENAKNTVYLQMNSLKPEDTAVYYCAGGRRRPYVRAYRGTDYWVQGTQVTVSS	low polyreactivity
QVQLVESGGGLVQAGGSLRLSCAASGFIFVYNAMGWYRQAPGKEREFVASITWSGGRTYYADSVKGRFTISRDNAKNTVYLQMNSLKPEDTAVYYCATKYPNSQGRRYDYWGQGTQVTVSS	low polyreactivity
QVQLVESGGGLVQAGGSLRLSCAASGSIFPGYAMGWYRQAPGKERELVATITWSGGSTYYADSVKGRFTISRDNAKNTVYLQMNSLKPADTAVYYCNADSNWYYQWNYYGLYDYWGQGTQVTVSS	low polyreactivity
QVQLVESGGGLVQAGGSLRLSCAASGSIFPGYAMGWYRPAPGKDRELVATIPWSGGSTYYADSVKGRFTISRDNENNTVYLQMNSLKPEDTAVYYCYADSYWYYQWYYYGLYDYWGAGTQVTVSS	low polyreactivity
QVQLVESGGGLVQAGGSLRLSCAASGSTFYRYAMGWYRQAPGKERELVAAITRTTARTYYADSVKGRFTISRDYAKNTVYLQMNSLKPEDTAVYYCAADLYSWTWSGFRQYDYWGQGTQVTVSS	high polyreactivity
QGQLVESGGGLVQAGGSLLLICAASGGTFLTYAMGWYRQAPGKERELVAAITSGGSTKYADSVKGRFTISRDNAKNTVYLQMNSLKPEDTAVYYCAADSVRDYVLWWAYSRSDYWGQGTQVTVSS	low polyreactivity
QVQLVESGGGLVQAGGSLRLSCAASGSIFYVYVMGWYRQAPGKERELVAAIDTGGGDTYYADSVKGRFTISRDNAKNTVYLQMNSLKPEDTAVYYCAAELYDYGDLYYSEYDYWGQGTQVTVSS	low polyreactivity
QDQLVESGGGLVQAGGSLRLSCAASGPIFYPYVMGWYRQAPGKERELVAAISDSTGSTYYADSVKGRFTISRDNAKNTVYLQMNSLKPEDTAVYYWGQGTQVTVSS	low polyreactivity
QVQLVESGGGLVQAGGSLRLSCAASGRIFYIYAMGWFRQAPGKERELVAAITNGGSTNYADSVKGRFTISRDNAKNTVYLQMNSLKPEDTAVYYCAASVGTYAYARTVYRYDYWGQGTQVTVSS	low polyreactivity
QVQLVESGGGLVQAGGSLRLSCAASGLISYHYAMGWYRQAPGKERELVASISYTGGSTFYADSVKGRFTISRDNAKNTVYLQMNSLKPEDTAVYYCAAYRIWRPSYYYWGQGTQVTVSS	high polyreactivity
QVQLVESGGGLVQAGGSLRLSCAASGLTFKDNVMGWYRQAPGKERELVAAISSSGGSTYYADSVKGRFTLSRDNAKNTVYLQMNSLKPEDTAVYYCAAPTFSRYYYWGQGTQVTVSS	high polyreactivity
QVQLVESGGGLVQAGGSLRLSCAASGSIFLTNAMGWYRQAPGKERELVAAIRSGGSTSYADSVKGRFTISRDNAKNTVYLQMNSLKPEDTAVYYCNAESDYRNYKVHPSGIYEYWGQGTQVTVSS	low polyreactivity
QVQLVESGGGLVQAGGSLRLSCAASGSTSQLYAMGRYRQAPGKERELVAAITVSGDSTYYADSVKGRFTISRDNAKNTVYLQMNSLKPEDTAVYYCAADVMVQTVPGGYDDWGQGTQVTVSS	low polyreactivity
QDQLVESGGGLVQAGGSLRLSCAASGTTFQYNAMGWYRQAPGKERELVAAISGSGGSTYYADSVKGRFTISRDNAKNTVYLEMNSLKPEDTAVYYCARVGYRHGYYNYCGQGTQVTVSS	high polyreactivity
QVQVVESGGGLVQAGGSLRLSCAASGGTDYYYAMGWYRQAPGKERELFAAITESGGSTYYADSVKARYTISRDNAKTTVYVQMNSLKPEDTAVYYCNADWRRWYIFSYDYWGQGTQVTVSS	low polyreactivity
QVQHVESGRGLVQAGGILRLTCAASGRTFEYYAMGWYRQAPGKERELVAAITYSGDSTYYADSVKGRFTISRDNAKNTFYLQMNSLKPEDTAVYYCAADWSSLKDDYWGQGTQVTVSS	low polyreactivity
QVQLVESGGGLVQAGGSLRLSCAASGRTFVTNAMGWYRPAPGKERELVPAISSNGGSTYYADSVKGRFTISRDTAKNTVYLQMNSLKPEDTAVYYCNAEGQPLYWWDHGNYWGQGTQVTVSS	low polyreactivity
QVQLVESGGGVVQAGGSLRVSCAASGRIFAPYAMGWYRQAPGKERELVAAISWRGSSTYYADSVKGRFTISRDNAKNTVSLQMNSLKPEDTAVYYCAAPSSKYWGQGTQVTVSS	low polyreactivity
